Source: PMC10992996, “Human CRB1 and CRB2 form homo- and heteromeric protein complexes in the retina” (Life Science Alliance, 2024)

Molecular target: T1, CRB1-FLAG p.C1181R (human, UniProt P82279 26-1406, p.C1181R)
T1 construct: Made by site-directed mutagenesis of m1; also called CRB1 p.C1181R; CRB1-FLAG MT; source: HEK293T, transfected, in lysate; not shown: Strep-Strep-FLAG, N-terminal, kept
T1 sequence (looked up): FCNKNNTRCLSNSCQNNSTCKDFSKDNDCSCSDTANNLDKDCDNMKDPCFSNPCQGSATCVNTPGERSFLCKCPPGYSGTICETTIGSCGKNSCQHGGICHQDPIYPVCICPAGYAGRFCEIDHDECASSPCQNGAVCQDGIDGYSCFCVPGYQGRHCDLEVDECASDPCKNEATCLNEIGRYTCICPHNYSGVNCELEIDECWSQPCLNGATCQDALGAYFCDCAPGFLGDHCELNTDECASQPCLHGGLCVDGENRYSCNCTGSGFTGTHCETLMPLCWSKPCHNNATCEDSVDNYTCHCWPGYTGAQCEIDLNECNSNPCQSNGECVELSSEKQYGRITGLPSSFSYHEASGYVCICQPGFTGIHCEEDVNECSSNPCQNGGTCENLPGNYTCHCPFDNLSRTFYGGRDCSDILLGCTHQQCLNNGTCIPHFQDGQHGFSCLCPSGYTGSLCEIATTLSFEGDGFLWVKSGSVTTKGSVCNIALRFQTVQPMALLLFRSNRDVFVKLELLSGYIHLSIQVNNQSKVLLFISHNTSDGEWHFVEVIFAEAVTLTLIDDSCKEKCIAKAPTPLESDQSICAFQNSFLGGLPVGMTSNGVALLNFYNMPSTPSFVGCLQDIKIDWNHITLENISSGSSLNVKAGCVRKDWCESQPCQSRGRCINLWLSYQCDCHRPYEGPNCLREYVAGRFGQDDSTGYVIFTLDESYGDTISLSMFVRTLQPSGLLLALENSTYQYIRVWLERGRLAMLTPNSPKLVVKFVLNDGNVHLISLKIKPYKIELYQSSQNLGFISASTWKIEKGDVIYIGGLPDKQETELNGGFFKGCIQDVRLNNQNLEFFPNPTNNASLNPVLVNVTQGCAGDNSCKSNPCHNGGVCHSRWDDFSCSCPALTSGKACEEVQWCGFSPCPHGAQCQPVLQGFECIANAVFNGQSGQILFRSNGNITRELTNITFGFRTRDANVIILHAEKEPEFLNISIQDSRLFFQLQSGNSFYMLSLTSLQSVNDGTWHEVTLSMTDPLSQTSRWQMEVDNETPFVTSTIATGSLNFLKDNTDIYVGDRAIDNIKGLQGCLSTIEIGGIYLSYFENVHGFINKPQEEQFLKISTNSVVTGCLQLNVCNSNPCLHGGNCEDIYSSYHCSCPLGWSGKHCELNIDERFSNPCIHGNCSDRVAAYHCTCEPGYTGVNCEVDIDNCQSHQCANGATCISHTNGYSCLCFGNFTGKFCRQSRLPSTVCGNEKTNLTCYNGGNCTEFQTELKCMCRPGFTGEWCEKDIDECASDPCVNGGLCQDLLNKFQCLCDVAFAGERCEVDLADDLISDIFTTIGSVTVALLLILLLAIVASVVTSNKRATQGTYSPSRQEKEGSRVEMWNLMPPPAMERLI
Experiment: co-IP; HEK293T cells co-transfected pairwise with a FLAG and an HA construct, 48 h; lysis in TBS (30 mM Tris-HCl pH 7.4, 150 mM NaCl) with 0.5% Nonidet P40; FLAG-IP on ANTI-FLAG M2 Affinity Gel 60-90 min at 4°C, elution with FLAG peptide; Western blot with HA and FLAG antibodies; for mutants HA/FLAG signal in eluates relative to WT, three biological replicates
Settings: partners not purified

percent reduction of the interaction relative to CRB1 WT: 19%
B1: Human canonical CRB2 (Crumbs homolog 2) (natural protein)
chain: not shown
notes: Crumbs homolog 2, human, cDNA NM_173689; Stood as bait (FLAG copy) and as prey (HA copy) in the pairwise co-IP matrix; each copy carries only one of the two tags; The FLAG copy was the bait of the mass spectrometry pull-downs; also called CRB2-FLAG; CRB2-HA; source: HEK293T, transfected, in lysate (co-IP); HEK293T, transfected, FLAG-IP on beads, washed and purified with 0.01% SDS (retina …)
